Test results published in the Human Domainome abundance scans (Beltran et al. 2025).
± gives the uncertainty stated by the source.

B1: Transcriptional regulator ERG, residues 117 to 197; numbered along this chain, P11308 (parent)
chain: NMTTNERRVIVPADPTLWSTDHVRQWLEWAVKEYGLPDVNILLFQNIDGKELCKMTKDDFQRLTPSYNADILLSHLHYLRE

Variants of: B1
Assay: abundance fitness (aPCA) (normalised: wild type 0, dead -1); higher = more abundant; growth selection in yeast, the domain comes from the species named
Conditions: Homo sapiens
With N5D the abundance fitness was 0.079 ± 0.068.
V39I showed an abundance fitness of 0.007 ± 0.064.
Variant T20N has an abundance fitness of -0.072 ± 0.068.
With E33N the abundance fitness was -0.059 ± 0.095.
With D14R the abundance fitness was -0.783 ± 0.092.
V23C showed an abundance fitness of -0.328 ± 0.095.
In the case of P12E, the abundance fitness is reported as -0.019 ± 0.045.
In the case of N1A, the abundance fitness is reported as -0.144 ± 0.092.
Variant M55D has an abundance fitness of -0.745 ± 0.34.
V11F gave an abundance fitness of 0.078 ± 0.076.
With L42Y the abundance fitness was -0.018 ± 0.072.
Work on T16D yielded an abundance fitness of -0.115 ± 0.072.
Work on I41W yielded an abundance fitness of -0.159 ± 0.045.
In the case of P65G, the abundance fitness is reported as -0.004 ± 0.036.
Work on A69L yielded an abundance fitness of -0.658 ± 0.17.
Work on V9D yielded an abundance fitness of 0.269 ± 0.052.
Variant K54N has an abundance fitness of -0.054 ± 0.09.
A13Q gave an abundance fitness of 0.11 ± 0.06.
In the case of D14E, the abundance fitness is reported as -0.346 ± 0.089.
With L73S the abundance fitness was -0.063 ± 0.061.
R62K showed an abundance fitness of 0.017 ± 0.092.
Variant H75Y has an abundance fitness of -0.113 ± 0.12.
In the case of P65N, the abundance fitness is reported as -0.271 ± 0.25.
Variant R8L has an abundance fitness of -0.29 ± 0.054.
Variant G35F has an abundance fitness of -0.276 ± 0.12.
Variant R62T has an abundance fitness of -0.162 ± 0.12.
Variant N40G has an abundance fitness of -0.4 ± 0.044.
V39L gave an abundance fitness of 0.066 ± 0.037.
With A69P the abundance fitness was -0.124 ± 0.14.
D14Y showed an abundance fitness of -0.723 ± 0.16.
In the case of V39S, the abundance fitness is reported as -0.116 ± 0.046.
L17C showed an abundance fitness of 0.042 ± 0.079.
For T56F, the abundance fitness was -0.502 ± 0.19.
In the case of D58A, the abundance fitness is reported as 0.039 ± 0.054.
D14T showed an abundance fitness of -0.417 ± 0.078.
For D38S, the abundance fitness was -0.054 ± 0.043.
In the case of I10D, the abundance fitness is reported as 0.328 ± 0.066.
For D48W, the abundance fitness was -0.969 ± 0.13.
F60H gave an abundance fitness of -0.633 ± 0.41.
W29T gave an abundance fitness of 0.065 ± 0.055.
Y67F gave an abundance fitness of -0.242 ± 0.15.
With V23K the abundance fitness was -0.991 ± 0.2.
In the case of Q25D, the abundance fitness is reported as -0.061 ± 0.066.
In the case of N5K, the abundance fitness is reported as 0.001 ± 0.056.
F44I gave an abundance fitness of -0.497 ± 0.15.
In the case of P12L, the abundance fitness is reported as -0.505 ± 0.058.
Work on N1S yielded an abundance fitness of -0.097 ± 0.066.
With F60D the abundance fitness was -0.773 ± 0.41.
In the case of L63I, the abundance fitness is reported as 0.097 ± 0.15.
For A69T, the abundance fitness was -0.219 ± 0.14.
R80M showed an abundance fitness of 0.038 ± 0.08.
K57S showed an abundance fitness of -0.024 ± 0.062.
For N46R, the abundance fitness was -0.106 ± 0.036.
W29C gave an abundance fitness of 0.017 ± 0.06.
For T20Y, the abundance fitness was -0.276 ± 0.1.
For L27C, the abundance fitness was -0.47 ± 0.11.
Work on D48P yielded an abundance fitness of -0.295 ± 0.081.
K57P gave an abundance fitness of -0.028 ± 0.088.
Work on G49Y yielded an abundance fitness of -1.14 ± 0.25.
In the case of K32Y, the abundance fitness is reported as -0.198 ± 0.1.
For V9E, the abundance fitness was 0.207 ± 0.075.
Variant I41A has an abundance fitness of -0.145 ± 0.044.
For L63A, the abundance fitness was -0.238 ± 0.092.
Work on K32I yielded an abundance fitness of 0.005 ± 0.069.
In the case of L73W, the abundance fitness is reported as -0.028 ± 0.056.
Variant L43M has an abundance fitness of -0.063 ± 0.054.
For A30K, the abundance fitness was -0.105 ± 0.061.
Work on L42K yielded an abundance fitness of -0.008 ± 0.054.
I10G showed an abundance fitness of 0.227 ± 0.03.
With H75N the abundance fitness was 0.099 ± 0.13.
P65A showed an abundance fitness of 0.025 ± 0.052.
H77G gave an abundance fitness of 0.194 ± 0.061.
Variant D48C has an abundance fitness of -0.075 ± 0.064.
In the case of W18N, the abundance fitness is reported as -0.994 ± 0.29.
For F60Y, the abundance fitness was -0.365 ± 0.2.
Variant L76Q has an abundance fitness of -0.928 ± 0.41.
For T4N, the abundance fitness was -0.028 ± 0.069.
Variant T3L has an abundance fitness of -0.094 ± 0.046.
For L27I, the abundance fitness was -0.085 ± 0.09.
With L17P the abundance fitness was -1.08 ± 0.4.
Variant C53D has an abundance fitness of -0.325 ± 0.085.
D58F gave an abundance fitness of -0.096 ± 0.16.
T64S showed an abundance fitness of -0.155 ± 0.048.
P15H gave an abundance fitness of -0.86 ± 0.19.
V39M gave an abundance fitness of -0.045 ± 0.052.
In the case of S66W, the abundance fitness is reported as -0.28 ± 0.076.
For Y34C, the abundance fitness was -0.186 ± 0.077.
In the case of A30H, the abundance fitness is reported as -0.108 ± 0.092.
W29M gave an abundance fitness of -0.038 ± 0.055.
Y78H showed an abundance fitness of -0.119 ± 0.13.
For P12N, the abundance fitness was -0.027 ± 0.068.
Work on T3Q yielded an abundance fitness of -0.043 ± 0.059.
With R62H the abundance fitness was -0.165 ± 0.14.
Variant P15Q has an abundance fitness of -0.495 ± 0.092.
T20G showed an abundance fitness of -0.225 ± 0.035.
R62F showed an abundance fitness of -0.112 ± 0.11.
For D58I, the abundance fitness was 0.055 ± 0.14.
Variant P15K has an abundance fitness of -0.915 ± 0.17.
With S74C the abundance fitness was -0.115 ± 0.085.
For K57T, the abundance fitness was -0.14 ± 0.088.
With R24D the abundance fitness was -0.908 ± 0.24.
Y34K gave an abundance fitness of -0.056 ± 0.07.
L79F showed an abundance fitness of -0.215 ± 0.11.
Variant L63N has an abundance fitness of -0.571 ± 0.15.
For S74W, the abundance fitness was -0.603 ± 0.15.
Work on N46Y yielded an abundance fitness of -0.082 ± 0.073.
P65S showed an abundance fitness of 0.044 ± 0.076.
For V11H, the abundance fitness was 0.321 ± 0.089.
In the case of F44W, the abundance fitness is reported as -0.072 ± 0.045.
For Q45I, the abundance fitness was -0.235 ± 0.085.
In the case of Y78L, the abundance fitness is reported as 0.12 ± 0.051.
F44A showed an abundance fitness of -0.195 ± 0.042.
Variant H22S has an abundance fitness of -0.357 ± 0.054.
Work on L73A yielded an abundance fitness of 0.023 ± 0.052.
Variant P15T has an abundance fitness of -0.632 ± 0.085.
In the case of N1M, the abundance fitness is reported as -0.087 ± 0.071.
For N46C, the abundance fitness was -0.066 ± 0.061.
Variant W29S has an abundance fitness of 0.11 ± 0.044.
With E81L the abundance fitness was 0.076 ± 0.14.
For T64N, the abundance fitness was 0.02 ± 0.12.
In the case of Y67K, the abundance fitness is reported as -0.097 ± 0.1.
Variant H22E has an abundance fitness of 0.018 ± 0.047.
Variant I47A has an abundance fitness of -0.521 ± 0.077.
With I10W the abundance fitness was -0.089 ± 0.049.
For E6G, the abundance fitness was 0.031 ± 0.029.
D70H showed an abundance fitness of -0.011 ± 0.15.
Variant T16W has an abundance fitness of -0.115 ± 0.054.
In the case of L63V, the abundance fitness is reported as -0.092 ± 0.041.
For Y34R, the abundance fitness was -0.211 ± 0.04.
In the case of E6L, the abundance fitness is reported as 0.006 ± 0.042.
With V9Q the abundance fitness was 0.243 ± 0.055.
For W26K, the abundance fitness was -0.785 ± 0.13.
Work on E81C yielded an abundance fitness of -0.05 ± 0.092.
For P37F, the abundance fitness was -0.143 ± 0.049.
For E6H, the abundance fitness was 0.004 ± 0.083.
Q61T showed an abundance fitness of 0.105 ± 0.068.
Work on D70N yielded an abundance fitness of -0.143 ± 0.1.
Work on L73Q yielded an abundance fitness of -0.144 ± 0.093.
G49V showed an abundance fitness of -0.895 ± 0.092.
With R8V the abundance fitness was -0.478 ± 0.083.
L76H showed an abundance fitness of -0.237 ± 0.25.
Q61A gave an abundance fitness of 0.011 ± 0.049.
Work on L52K yielded an abundance fitness of -0.728 ± 0.11.
P37N showed an abundance fitness of 0.072 ± 0.052.
With M2G the abundance fitness was -0.337 ± 0.044.
K32M showed an abundance fitness of 0.003 ± 0.057.
V11N showed an abundance fitness of 0.063 ± 0.073.
G49M gave an abundance fitness of -0.678 ± 0.14.
A30I showed an abundance fitness of -0.164 ± 0.11.
E81M showed an abundance fitness of -0.301 ± 0.17.
Work on W29H yielded an abundance fitness of 0.082 ± 0.085.
V9Y showed an abundance fitness of -0.062 ± 0.044.
L52F showed an abundance fitness of -0.327 ± 0.07.
For A30W, the abundance fitness was -0.324 ± 0.067.
With D14G the abundance fitness was -0.706 ± 0.073.
In the case of E28V, the abundance fitness is reported as -0.04 ± 0.042.
M2Q gave an abundance fitness of 0.037 ± 0.07.
Work on Y78I yielded an abundance fitness of 0.034 ± 0.089.
R80Y gave an abundance fitness of -0.466 ± 0.24.
For T56E, the abundance fitness was -0.058 ± 0.07.
V39A gave an abundance fitness of -0.169 ± 0.044.
In the case of M55S, the abundance fitness is reported as -1.14 ± 0.28.
With D48V the abundance fitness was -0.378 ± 0.051.
With E6A the abundance fitness was -0.139 ± 0.043.
With R7L the abundance fitness was 0.087 ± 0.039.
L42I gave an abundance fitness of -0.112 ± 0.087.
V9W showed an abundance fitness of 0.038 ± 0.07.
